Measured values published in PMC3637846 (Nature, 2013).
Changes are numbered by the printed parent chain.

B1: inferred intermediate antibody I1 (antibody, V domains shown)
V domain 1: QVQLQESGPGVVKSSETLSLTCTVSGGSMGGTYWSWLRLSPGKGLEWIGYIFHTGHTNYSPSLKGRVSISVDTSEDQFSLRLRSVTAADTAVYFCASLPRGQLVNAYFRNWGRGTLVSVTA
V domain 2: SYELTQPPSVSVSPGQTATITCSGDKVASKNVCWYQVKPGQSPEVVMYENYKRPSGIPDRFSGSKSGSTATLTIRGTQATDEADYYCQVWDSFSTFVFGSGTQVTV
B2: CH104 (full-length IgG1 recombinant mAb) (antibody, V domains shown)
V domain 1: B1 V domain 1 with S60N, K64E
V domain 2: B1 V domain 2 with P54A
B3: CH103 (full-length IgG1 recombinant mAb) (antibody, V domains shown)
V domain 1: B1 V domain 1 with H56E, T115S
V domain 2: SYELTQPPSVSVSPGQTATITCSGASTNVCWYQVKPGQSPEVVIFENYKRPSGIPDRFSGSKSGSTATLTIRGTQAIDEADYYCQVWDSFSTFVFGSGTQVTV
B4: CH103 unmutated common ancestor (UCA) mAb (antibody, V domains shown)
VH: QVQLQESGPGLVKPSETLSLTCTVSGGSISSYYWSWIRQPPGKGLEWIGYIYYSGSTNYNPSLKSRVTISVDTSKNQFSLKLSSVTAADTAVYYCASLPRGQLVNAYFDYWGQGTLVTVSS
VL: not shown

What was measured:
[1] = target: CH505 transmitted/founder (T/F) Env gp140 (HIV-1 subtype C, CH505 (703010505) …, strain); experiment: SPR
[2] = target: heterologous T/F Env C.1086 (HIV-1 subtype C, isolate 1086 (T/F), UniProt C6G099, strain); experiment: ELISA

Row | Binder | binding result [1] | binding result [2]
1 | B1 | binds | 
2 | B2 | binds | 
3 | B3 | binds | 
4 | B4 |  | no binding
